Ends that are not written are not given here. * marks the point of attachment. Biotin = O=C1N[C@H]2[C@H](CS[C@H]2CCCCC(=O)*)N1
Legend:
Assay in all cases: peptide or protein array; E. coli proteome chip: purified His-tagged proteins printed in duplicate on Fullmoon slides, blocked with 1% BSA; 10 nM N-terminal biotinylated LfcinB with 1% BSA, room temperature, 1 h; detected with DyLight 649-labeled streptavidin, ratio to DyLight 549-labeled anti-His antibody; ProCAT normalisation, local cut-off; triplicate chips
Conditions in all cases: both partners purified
YjiL = target: T1, YjiL (E. coli K-12, UniProt P39383 1-255)
T1 construct: YjiL, E. coli K-12
T1 sequence (looked up): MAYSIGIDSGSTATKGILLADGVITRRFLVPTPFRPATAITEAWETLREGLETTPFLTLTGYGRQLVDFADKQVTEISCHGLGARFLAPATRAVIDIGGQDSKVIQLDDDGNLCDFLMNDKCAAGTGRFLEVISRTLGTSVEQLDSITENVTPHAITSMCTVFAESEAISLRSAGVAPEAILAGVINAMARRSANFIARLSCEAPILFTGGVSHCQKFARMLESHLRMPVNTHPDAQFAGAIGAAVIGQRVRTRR

YbaQ = target: T2, YbaQ (E. coli K-12, UniProt P0A9T6 1-113)
T2 construct: YbaQ, E. coli K-12
T2 sequence (looked up): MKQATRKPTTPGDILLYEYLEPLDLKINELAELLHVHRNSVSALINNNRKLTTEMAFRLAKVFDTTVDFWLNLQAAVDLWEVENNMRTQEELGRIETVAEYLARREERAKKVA

DinG = target: T3, DinG (E. coli K-12, UniProt P27296 1-716)
T3 construct: DinG, E. coli K-12
T3 sequence (looked up): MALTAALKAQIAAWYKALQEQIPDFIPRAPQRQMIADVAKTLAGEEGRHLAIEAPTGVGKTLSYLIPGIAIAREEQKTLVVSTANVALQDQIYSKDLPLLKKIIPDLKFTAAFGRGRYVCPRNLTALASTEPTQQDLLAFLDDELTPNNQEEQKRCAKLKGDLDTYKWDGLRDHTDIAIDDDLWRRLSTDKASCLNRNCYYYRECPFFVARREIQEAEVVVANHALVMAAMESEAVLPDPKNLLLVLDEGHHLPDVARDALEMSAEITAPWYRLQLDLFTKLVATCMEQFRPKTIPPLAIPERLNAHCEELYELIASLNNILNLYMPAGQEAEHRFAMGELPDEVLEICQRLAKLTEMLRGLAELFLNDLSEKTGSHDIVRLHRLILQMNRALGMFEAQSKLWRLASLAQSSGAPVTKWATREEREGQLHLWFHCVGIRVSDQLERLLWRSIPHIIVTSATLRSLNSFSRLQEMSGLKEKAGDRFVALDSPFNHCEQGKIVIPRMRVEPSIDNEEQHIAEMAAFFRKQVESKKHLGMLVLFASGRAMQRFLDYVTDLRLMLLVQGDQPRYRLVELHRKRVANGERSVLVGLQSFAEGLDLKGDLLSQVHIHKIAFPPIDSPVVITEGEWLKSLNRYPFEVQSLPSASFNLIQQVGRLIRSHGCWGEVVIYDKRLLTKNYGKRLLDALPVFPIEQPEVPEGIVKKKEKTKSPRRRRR

AmiA = target: T4, AmiA (E. coli K-12, UniProt P36548 35-289)
T4 construct: AmiA, E. coli K-12
T4 sequence (looked up): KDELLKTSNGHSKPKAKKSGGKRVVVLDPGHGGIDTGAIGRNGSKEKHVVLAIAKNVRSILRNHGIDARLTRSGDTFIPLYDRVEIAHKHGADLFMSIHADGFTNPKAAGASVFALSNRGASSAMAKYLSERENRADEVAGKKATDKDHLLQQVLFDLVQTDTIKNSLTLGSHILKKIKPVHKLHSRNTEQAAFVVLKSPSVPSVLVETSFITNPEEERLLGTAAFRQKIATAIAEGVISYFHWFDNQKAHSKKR

YhgA = target: T5, YhgA (E. coli K-12, UniProt P31667 1-292)
T5 construct: YhgA, E. coli K-12
T5 sequence (looked up): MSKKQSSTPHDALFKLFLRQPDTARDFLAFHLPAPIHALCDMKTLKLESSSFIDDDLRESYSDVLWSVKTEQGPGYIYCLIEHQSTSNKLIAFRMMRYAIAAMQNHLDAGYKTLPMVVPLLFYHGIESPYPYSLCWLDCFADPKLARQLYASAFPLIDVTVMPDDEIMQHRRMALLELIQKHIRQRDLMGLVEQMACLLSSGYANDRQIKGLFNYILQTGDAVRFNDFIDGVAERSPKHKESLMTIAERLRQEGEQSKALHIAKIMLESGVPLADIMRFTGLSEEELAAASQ

Measured: binding result

B1: N-terminal biotinylated Lactoferricin B (peptide, UniProt P24627 36-60, looked up)
peptide: Biotin-FKCRRWQWRMKKLGAPSITCVRRAF
modifications: ends and bridges not checked
notes: lactoferricin B (LfcinB), cationic antimicrobial peptide of 25 amino acids; also called biotinylated LfcinB; biotin-labeled LfcinB; source: bought: Kelowna Inc
binds: all assays above
